Measurements from the supplement of paper PMC9170038.

Legend:
[1] = test system: MS2 coat protein; assay: apparent KD of MS2 coat protein, switch ON state; designed switch direction (-1 OFF switch, 1 ON switch): -1; higher = weaker reporter binding; conditions: FMN input: 0 or 200 uM; Eterna round: R93 (includes R88 designs)
In short: (§1)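 Apparent KD stands for the median, per design, of fits to normalised cluster binding curves. The curves came from titrating on-chip-transcribed RNA switches on Illumina sequencing clusters with SNAP-549-labelled MS2 coat protein, twofold from 0.7 or 1.5 nM to 3 µM. Buffer was 100 mM Tris-HCl pH 7.5, 80 mM KCl, 4 mM MgCl2, without or with constant ligand.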

[2] = test system: MS2 coat protein; assay: apparent KD of MS2 coat protein, switch OFF state (with FMN for OFF switches, without FMN for ON switches); designed switch direction (-1 OFF switch, 1 ON switch): -1; higher = weaker reporter binding; conditions: FMN input: 0 or 200 uM; Eterna round: R93 (includes R88 designs)
In short: as §1

Sequence | apparent KD of MS2 coat protein [1] [nM] | apparent KD of MS2 coat protein [2] [nM]
GGGUAGUCAGGAUAUACAAACAUGUCAAAAGACGUGAAAAAACAUGAGGAUCACCCAUGUAGAAGGGACUACCC [Mat - Exclusion 2 - JL mod - D20] | 17.8 | 15
AAAGGAUCAGGAUAUGCGUGGAAAAAGUGUAUUCAAAAAAAACAUGAGGAUCACCCAUGUAGAAGGGAUCCAAA [Normal (20/19)] | 140 | 546
AUCUUGUGAGGAUAUGCAUGAAAUGAAGUGAAAGAAAAGAAGCAGAAGGCACAUGAGGAUCACCCAUGUUAGAA [EteRNA is fun!] | 33.5 | 62.2
AAAAAACAUGAGGAUCACCCAUGUGAGGAUAUCGGUAGUGAGGCUAUAGUGUCAAUAGUGAGAAGGCACAUAAA [Brourd 613 Mod 12 - Jieux - Exclusion 1] | 31.1 | 29.2
AAAACACAUGAGGAUCACCCAUGUGAGGAUAUCGUGCAGUAGACGAAAGUCUACUGCACGAGAAGGCACAAGGA [Tweaking Brourd] | 33 | 50.2
UCAGGUGGAGGAUAUACAGCUCGAUCCUGGAAUAAAACGGCACAUGAGGAUCACCCAUGUAGAAGGCCACAAAA [Texeussoat] | 18.9 | 55.1
AAUAAUGCAGGAUAUACUAAAGAAAUGAAAAGAAAUAAAGAACAUGAGGAUCACCCAUGUAGAAGGGCAAAUAA [Yakareb] | 52 | 29.3
AAAAAUGGAGGAUAUACAUGAGGAUCACCCAUGUGUAAAAAAAAUUACACAAAAGAAAGUAGAAGGCCAUAAAA [Ex 3 Warm] | 59.7 | 102
AGUCCAGAAGGAUAUACAUAGGUGAUAAAAAAAAAAAAACUACAUGAGGAUCACCCAUGUAGAAGGUCUGGACA [Brourd - Exclusion 2 - Sub 3] | 37.8 | 24.5
UUAGAACAUGAGGAUCACCCAUGUGAGGAUAUGCAAUACUAAAAUUAAGAUAAUUAUAGCAGAAGGCACGUAGU [JR_EXc001_Sub804] | 33.2 | 40.9
AAGAAUGCAGGAUAUACAUGAAAGAAAGAAAAGAAAAGAAAACAUGAGGAUCACCCAUGUAGAAGGGCAUAGAA [EteRNA is fun!] | 26.8 | 44.1
AACUGACAUGAGGAUCACCCAUGUCAGGAUAUGACUUGAUAGAAAAUAAAAUAUCAUGUCAGAAGGGACAUGAA [Design 61: Sub-opt KB] | 14.3 | 12.4
AAGAAGUCAGGAUAUGCUAAAGAAAUGAAAAGAAAGAAAGAACAUGAGGAUCACCCAUGUAGAAGGGACAAGAA [Dedumose I] | 47.1 | 38.3
AAGGGACAUGAGGAUCACCCAUGUCAGGAUAUGCUAUGGAAAUAAAAAAUAAAACAUAGCAGAAGGGACAAAAA [Mat - Exclusion 1 - Eli mod - D33] | 41.2 | 67.6
AGUUGGCGAGGAUAUACAUGAGGAUCACCCAUGUAAAAUAAAUAAAAAGGGAAAGAAAGUAGAAGGCGCUGACA [73%, Moding Norbert Elias, 10] | 42.4 | 83.3
ACCACACAUGAGGAUCACCCAUGUGAGGAUAUCUAGAAAACCUCAUGUAAAAAAAUCUAGAGAAGGCAUAUGAA [Design 93: Pseudoknot C] | 38.3 | 28.4
AAAUUGUCAGGAUAUCUUAGAACUGUCAAAGACAGGAGCUAAGAGAAGGGACAUGAGGAUCACCCAUGUAAAAC [May 90] | 64 | 88.5
AAAAAACAUGAGGAUCACCCAUGUGAGGAUAUGUAAAAUAAAAUAAAAAUAAAGAAAAGCAGAAGGUAUAUGAA [Amethyst 65] | 20.4 | 23.2
AAAAAGUCAGGAUAUACGAAAGUGCGAAAGCACAAAAAGAGACAUGAGGAUCACCCAUGUAGAAGGGACAAGAA [Married to this design, 61% 2] | 45 | 17.8
AGCUAGUCAGGAUAUACGAACAUGUAAAAAGACGUGAAGGGACAUGAGGAUCACCCAUGUAGAAGGGACUAGAA [74%, Web mod - With 2 less C's] | 46.7 | 91.3
AAGGGACAUGAGGAUCACCCAUGUGAGGAUAUGAUGCGAAUAAAGAAAGAAGAAAGCAUCAGAAGGCACACCAA [58%, Disencluded 3, 7] | 67.8 | 146
AAAAAAGGAGGAUAUACGUACAUGUCAAAAGACGUGAAGGGACAUGAGGAUCACCCAUGUAGAAGGUCUAAAAA [JL Part Open 36] | 34.5 | 17.9
AAAUGACAUGAGGAUCACCCAUGUCAGGAUAUGACUUGAAAAAUAAAAUAAAAACAUGUCAGAAGGGACAUGGA [Design 51: Sub-opt GB] | 23.9 | 20.8
